These results are taken from publication PMC5599116.

This test deals with recombinant human CD62L (L-selectin) full extracellular region, native 1 signal sequence construct (human). The test is described as follows: SPR. In general terms: Surface plasmon resonance follows binding to a sensor surface in real time, without labels.

pKd: −log10 of the molar value.

By pKd is commonly meant the negative decadic logarithm of the Kd, by convention in mol/L. On to “mucin from porcine stomach type II (PSM-II) (natural protein)”, for which the pKd is 4.26.
